Reference: article PMC5153404, “Analysis of the Interaction between Globular Head Modules of Human C1q and Its Candidate Receptor gC1qR” (Frontiers in Immunology, 2016)

Molecular target: T1, Human C1q (human, UniProt P02745 23-245; P02746 28-253; P02747 29-245)
T1 construct: C1q A chain, human, from plasma; C1q B chain, human, from plasma; C1q C chain, human, from plasma; 18 polypeptides (6A, 6B, 6C), 460 kDa, as the introduction says; also called full-length C1q; source: purified from human plasma (IgG-Sepharose, HiTrap Protein G); copies: 6 + 6 + 6
T1 sequence (P02745 23-245, chain 1 of 3): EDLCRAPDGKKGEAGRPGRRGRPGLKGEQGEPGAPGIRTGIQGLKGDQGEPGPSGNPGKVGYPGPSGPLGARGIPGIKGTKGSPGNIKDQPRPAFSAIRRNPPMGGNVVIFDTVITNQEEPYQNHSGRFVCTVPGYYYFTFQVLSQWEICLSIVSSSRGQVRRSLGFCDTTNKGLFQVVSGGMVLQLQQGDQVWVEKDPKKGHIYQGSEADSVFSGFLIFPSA
T1 sequence (P02746 28-253, chain 2 of 3): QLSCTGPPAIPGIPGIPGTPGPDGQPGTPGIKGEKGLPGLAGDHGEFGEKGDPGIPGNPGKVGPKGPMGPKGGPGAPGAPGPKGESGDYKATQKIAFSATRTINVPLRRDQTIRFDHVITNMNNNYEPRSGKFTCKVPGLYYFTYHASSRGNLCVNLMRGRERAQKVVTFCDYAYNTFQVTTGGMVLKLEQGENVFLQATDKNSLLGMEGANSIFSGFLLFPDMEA
T1 sequence (P02747 29-245, chain 3 of 3): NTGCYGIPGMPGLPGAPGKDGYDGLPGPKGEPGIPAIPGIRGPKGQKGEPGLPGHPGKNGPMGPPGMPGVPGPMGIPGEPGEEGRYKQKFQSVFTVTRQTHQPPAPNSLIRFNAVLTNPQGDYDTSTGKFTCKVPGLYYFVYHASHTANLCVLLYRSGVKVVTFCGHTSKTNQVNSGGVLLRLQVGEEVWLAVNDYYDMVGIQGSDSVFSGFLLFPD
Test: ELISA; human C1q coated on wells (5, 2.5, 1.25, 0.625 μg/well); 2.5 μg gC1qR in 50 mM Tris-HCl pH 8.0, 100 mM NaCl, 5 mM CaCl2; 1 h at 37°C, then 1 h at 4°C; detected with anti-gC1qR polyclonal antibody and Protein A-HRP
Conditions: both partners purified

B1: Recombinant mature human gC1qR (residues 74-282) (receptor, UniProt Q07021 74-282, looked up)
chain: LHTDGDKAFVDFLSDEIKEERKIQKHKTLPKMSGGWELELNGTEAKLVRKVAGEKITVTFNINNSIPPTFDGEEEPSQGQKVEEQEPELTSTPNFVVEVIKNDDGKKALVLDCHYPEDEVGQEDEAESDIFSIREVSFQSTGESEWKDTNYTLNTDSLDWALYDHLMDFLADRGVDNTFADELVELSTALEHQEYITFLEDLKSFVKSQ
B1: binds.
